Results reported in patent publication US20240092867A1 (UNIVERSITY OF CHICAGO, published 2024).

Tests used:
[1] = molecular target: T1, recombinant laminin α3 2928-3150 protein (linker domain and LG4 domain) (human, UniProt Q16787 2928-3150); assay: SPR; α3 2928-3150 recombinant protein immobilised (~1000 RU), VEGF-A165 flowed at 0.325-10.4 nM; Langmuir fit [panel D]
T1 construct: range 2928-3150; Made in HEK-293F cells; also called laminin alpha 3 LG domain recombinant protein
T1 sequence: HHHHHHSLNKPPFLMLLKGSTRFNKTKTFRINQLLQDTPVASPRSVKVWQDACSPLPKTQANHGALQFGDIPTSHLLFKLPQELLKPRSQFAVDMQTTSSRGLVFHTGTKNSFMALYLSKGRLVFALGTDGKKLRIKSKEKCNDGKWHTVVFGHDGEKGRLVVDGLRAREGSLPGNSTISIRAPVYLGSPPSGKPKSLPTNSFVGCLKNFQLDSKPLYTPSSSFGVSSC
From the text: (§1) Statistical analyses were done using the Mann-Whitney U test by comparing the signals obtained from the laminin domain- and the BSA-coated wells. *p<0.05, **p<0.01. […] A SPR chip was functionalized with the laminin α3₂₉₂₈₋₃₁₅₀ recombinant protein (˜1000 RU), and each GF was flowed over the chip at indicated concentrations. Curves represent the specific responses (in RU) to laminin. Experimental curves were fitted with Langmuir binding kinetics.
(§2) Because the GFs that bound to laminins have also been previously reported to bind to other ECM glycoproteins through HBDs, it was hypothesized that HBDs of laminins might be responsible for the interactions between GFs and laminin. To address this hypothesis, ELISA assays were repeated for VEGF-A165, PlGF-2 or FGF-2 in the presence of heparin added in excess (10 μM). […] To further confirm this, the inventors tested direct GF binding to the LG domains from human laminin α3, α4 and α5, within which HBDs of laminin were localized.
(§3) SPR analysis was performed as described previously². In brief, measurements were made with a Biacore 3000 SPR system (GE Healthcare). […] VEGF-A165, PDGF-BB, or PlGF-2 was flowed at increasing concentrations in the running buffer at 20 μL/min. The sensor chip was regenerated with 50 mM NaOH for every cycle.

[2] = molecular target: T1, recombinant laminin α3 2928-3150 …; assay: SPR, α3 2928-3150 immobilised, GF flowed, Langmuir fit
Description: as §1, with “Affinity of GFs against recombinant laminin LG domains. ELISA plates were coated with 1 μg/mL (A) α3₂₉₂₈₋₃₁₅₀, (B) α4₈₂₆₋₁₈₁₆, or (C) α5₃₀₂₆₋₃₄₈₂ and further incubated with 1 μg/mL of VEGF-A165, VEGF-A121, PlGF-2, PlGF-1, PDGF-BB, or FGF-2 solution. Bound GFs were detected using a specific antibody for each GF (n=4, mean±SEM). Statistical” for “Statistical”
as §2
SPR analysis was performed as described previously². […]

[3] = molecular target: T2, recombinant human vWF A3 domain (human, UniProt P04275 1683-1874); assay: ELISA, domain coated 50 nM
T2 construct: domain: A3
T2 sequence (P04275 1683-1874 limits assumed): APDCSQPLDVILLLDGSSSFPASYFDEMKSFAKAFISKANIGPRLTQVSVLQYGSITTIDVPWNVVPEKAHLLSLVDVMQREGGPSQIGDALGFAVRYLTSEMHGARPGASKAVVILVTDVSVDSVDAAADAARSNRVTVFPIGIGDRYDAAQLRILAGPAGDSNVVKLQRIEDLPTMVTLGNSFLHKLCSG
Description: (§4) ELISA was performed as previously reported1. […] After blocking with 2% BSA solution containing PBS-T, 1 μg/mL of recombinant human VEGF-A121 (PeproTech), recombinant human VEGF-A145 (R & D Systems), or recombinant human VEGF-A165 (PeproTech) was added. Bound VEGF-A was detected with 1 μg/mL of mouse anti-human VEGF-A antibody (clone: 26503, R & D systems). After 60 min of incubation, horseradish peroxidase (HRP) conjugated goat anti-mouse antibody (1:2000 dilution, Dako) was added and incubated for another 60 min. Color development and the absorbance measurement were done as described above.

[4] = molecular target: T3, recombinant human vWF A2 domain (human, UniProt P04275 1498-1665); assay: ELISA, domain coated 50 nM
T3 construct: domain: A2
T3 sequence (P04275 1498-1665 limits assumed): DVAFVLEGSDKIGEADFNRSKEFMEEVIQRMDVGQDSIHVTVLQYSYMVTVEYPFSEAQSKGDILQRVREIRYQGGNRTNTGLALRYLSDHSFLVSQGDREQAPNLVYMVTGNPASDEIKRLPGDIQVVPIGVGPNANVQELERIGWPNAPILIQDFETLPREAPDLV
Description: as §4

[5] = molecular target: T4, laminin-111 (human, UniProt P25391 18-3075; P07942 22-1786; P11047 34-1609); assay: ELISA; plate coated with 10 µg/mL laminin, 1 µg/mL VEGF-A165 in solution without or with 10 µM heparin, bound GF detected with antibody [panel A]
T4 construct: Full-length recombinant human laminin isoform (BioLamina); Chain composition is read from the isoform name
Description: (§5) FIGS. 2A-C. […] ELISA plates were coated with 10 μg/mL laminin and further incubated with a 1 μg/mL (A) VEGF-A165, (B) PlGF-2, or (C) FGF-2 solution in the absence or presence of excess (10 μM) heparin. Bound GFs were detected using a specific antibody for each GF (n=4, mean±SEM). Statistical analyses were done using the Mann-Whitney U test by comparing the signals with and without heparin. *p<0.05, **p<0.01.
as §2

[6] = molecular target: T5, laminin-211 (human, UniProt P24043 23-3122; P07942 22-1786; P11047 34-1609); assay: as above
T5 construct: Full-length recombinant human laminin isoform (BioLamina); chains read from the isoform name
Description: as §5, §2

[7] = molecular target: T6, laminin-521 (human, UniProt O15230 36-3695; P55268 33-1798; P11047 34-1609); assay: SPR; laminin-521 immobilised on the chip (~2000 RU), VEGF-A165 flowed at 10-100 nM; Langmuir fit
T6 construct: Full-length recombinant human laminin isoform (BioLamina); chains read from the isoform name
Description: A450 nm represents absorbance at 450 nm. BSA-coated wells served as negative controls (n=4, mean±SEM). Signals greater than 0.1 (grey box) are considered to be significant. […] Experimental curves were fitted with Langmuir binding kinetics.
The obtained binding curves were fitted with Langmuir binding kinetics to calculate specific dissociation constants (KD) (FIG. 1B).
as §3, with “cycle. Specific bindings of GFs to laminin were calculated by comparison to a non-functionalized channel used as a reference. Experimental results were fitted with Langmuir binding kinetics using BIAevaluation software (GE Healthcare).” for “cycle.”

Kd [1]: 1.47 nM
koff [1]: 0.00663 s⁻¹
kon [1]: 4.52e+06 M⁻¹ s⁻¹
Kd [2]: 1.2 nM
binding result [3]: no binding (tested: 1 µg/mL)
binding result [4]: no binding (tested: 1 µg/mL)
binding result [5]: binds
binding result [6]: binds
Kd [7]: 5.78 nM
koff [7]: 0.00324 s⁻¹
kon [7]: 561000 M⁻¹ s⁻¹
B1: vascular endothelial growth factor (VEGF)-A165 (ligand, human, UniProt P15692-4 27-191, looked up)
chain: APMAEGGGQNHHEVVKFMDVYQRSYCHPIETLVDIFQEYPDEIEYIFKPSCVPLMRCGGCCNDEGLECVPTEESNITMQIMRIKPHQGQHIGEMSFLQHNKCECRPKKDRARQENPCGPCSERRKHLFVQDPQTCKCSCKNTDSRCKARQLELNERTCRCDKPRR
notes: mature; Purchased in mature form, not glycosylated
